The values below come from the DeepSol protein solubility set.

This data set is described as follows: soluble on expression in E. coli; label from the status in PepcDB or PDB records.
In the case of “MAASRDIFAPDFRRRPYWWEGYEPPECGEDTLPASADVAIVGGGYTGVCCALALREAGIEAVVLEAGRPGEGASTRSGGQVSGGVNVQKKALAAVGESAGQRAERLAARLRDAAASMAYVESLIERYAIECGWRRTGRLTTMWVPAHYQSWQARLDQLNACTGSQARMIPREELAAEIGSSVYHGAALIEHAGHLQPAQLYGGMLRAARDAGARVLGRTPVERIERRAGGYDVHTARGTVRAGQVVIATIGYTGANLGGLKRRIVPVCTHMIATEALPPDLAASLLPTNRAVSESRRVVNHYRLSPDGRRLLFGGRARFVPTDEATTARLLYRAMLKRFPQLAGTRITHSWGGNVAMTLDSMPHIGGADGLHYALGCNGSGVAMMSYLGHCVGRKIATQSGEPINAFDMGEIPGHPFYFGNPWFLFAIGSWYQARDAYDHWRARLEHHHHHH”, the “soluble on expression in E. coli” value was “soluble”.

For the sequence “GPGSMMVGKAPKNCVHIGLCVLYSGSGFRGLQIQVHAPTCHTVEGVLIQALKDAGIIADVVRGRPAGEHHHFARSCRTDRGVHAIRNMVSLFVPKEVFEKMGQAEGICEKLNRQLPATVRVANVMQLSGSFIPRHCCNRRVYRYMLPLYALLPPCDTWAAVDKYYPGCLAHVQALAEEAAAAQRTQYSIPYVDLEKMNAVARPADAQALPSSWLRDLKASADRCNQVLRSHFTGSRRYHNFSVDIDSNRSGVSAKVIQPTTDEALRAIYRSEVCPRLFFFPCSTKGGAADEAPVPVHGESRTEYDMNLLRYPPRTPTSPEDTVGGSAAASTTTTPTGTSTTPATCLSPNTTALPFLFFQIEGCSFLLNMIRKIIGSVLAVCRGARESILEDAFSPECRVTTPLAPGPYLYLAQSTYHGYDRSIGGAGNAHQPGRLKTVQDAWGGAVSEAAELFAFHKIAADIVDVDLNAMPPLDDILAARDRAREASRPHTAVEDAHLAEMKEYKPVLPTRIPWPASSDMTVFLRLLRVHNWNVRPIQLDPACKALREIKNRKERLTASSVAAAASPGAEASKAGEADGGDTRANEATVEQAATPTGDAWRIRSEGSSTGGVPEGGEDGWLYVADTPEEASVQRQAYFASLWKRARPWEYDDATGKSLIHGGEVGTEDDFDDGDGSTARPRRHRRV”, the “soluble on expression in E. coli” value is “soluble”.

In the case of “MKGMKYHDYIWDLGGTLLDNYETSTAAFVETLALYGITQDHDSVYQALKVSTPFAIETFAPNLENFLEKYKENEARELEHPILFEGVSDLLEDISNQGGRHFLVSHRNDQVLEILEKTSIAAYFTEVVTSSSGFKRKPNPESMLYLREKYQISSGLVIGDRPIDIEAGQAAGLDTHLFTSIVNLRQVLDI”, the “soluble on expression in E. coli” value is “soluble”.

Turning to “MHKDTHCAVVIDCWMNKLGEVNFENRPSRYPAFVEDVRKICGTKEIVFGLEDTRGFGRNLAAYLVGRKFEVKHVNPAYTSAVRLANPIIYKDDSYDAYCVARVLRDMVDTLKDAKHEDIFWTIRQMVKRRDLIVKSNVMNKNQLHSQLAYSYPSYRKFFAMIDSKSALCFWENYPSPEYIWNTIPEEIYQTIKPVHQALKIQRIHEIISMIERDGDTRKDYQPERDFIVRNIVKDIRHNKELIAEIDDELRKLIPLTGYKLHTMPGIDLVTEAQIISEIGDINRFPDSDKLARFMGLAPVQFSSAGKGKDQRCRNGNRALNAIFHFLAIQMVAVSASGKPRHPVFREYFEQKVKEGKNKPQALVCVARRLVRIIYGMMKTRTEYRPYEKVDDKN”, the “soluble on expression in E. coli” value is reported as “soluble”.

Take “MAHHHHHHMAEAKVVKDLAEVCASGAETYSAWTTAKALVQRRYLSAKAQGTFEDCGKLLASLTRVLQTYLRIDLAQELLSDVLFQVMEHFSAKQAAGATAAVVKDGGAPQSSFDLAAANFLQHMFDTLLSATTRTYTLMGPMPLVVEWNRDADSGGVEAAVAQSKHAAPWAEAVVLEFAVRAADFLSQRPQSADVLSHWAQNLFVSYEQLLALRLALPSSPPSTPQDGKAASAAAPSPSVPVPTLASQLLRMSTFNRASRTGKESSDSTSAATTPLTAAVYWLTHFAREPNAVNHLFAQYVYFDILGRGQQRSSTANTTPGNSGAPAKMLRERVNAALEERCTLTRREAISMARAAVEAYWQAFPLVLQQTSSVSSPQPSSCAGESSKEDANVDPQDVHLYRWTWFLDSLTLTFAYSGSASASIDEDAAVQQRERQKHVCAQLLELYADVTAELPGLKWQELVAAYIGA”: the “soluble on expression in E. coli” value was “soluble”.

With “AIASPQDTCCPPDSWPALKVDYKPKGKLEDIGKGLKAYVVGNGPRAVIALNDVFGIESGHSKEICDAIADKGFTVVFPDVFRGKPLQVSDMSKLFDELPGWAKQFDYEPALRKDVVEVILPYLHDKLGFKSNDQIALAGFCWGAFMLFHLAGDTKLPGGPFACGVSFHPSVQIEGVFQRDPLQLIDRATCPQLLLPSAGEPDYMKEEGDAIKKLRAKPFGASCGVKTFPSMQHGWVNRGDRNDPQVVKEAQEALQLAVDFMMRHTKPKA”, the “soluble on expression in E. coli” value is listed as “soluble”.

On to “MGHHHHHHAKAVAPTTGWKQENGMWYFYNTDGSMATGWVQVNGSWYYLNSNGSMKVNQWFQVGGKWYYVNTSGELAVNTSIDGYRVNDNGEWVR”, for which the “soluble on expression in E. coli” value is listed as “soluble”.

Turning to “MNIVIAAVGGQGAVLTSKILGTLAQNLGKDVKVSEVHGMSQRGGSVVAYVKFGDKVYSPVVEKGTADIVLAFEMLEGARYVDYLKENGKLVVNTQRIDPMPVITGDMEYPADLGEKLEELNIGYIPVDALSLAKNAGTIKAVNVALIGVLAQNSNIKKEEWIKAIKDTVPEKFLELNLKAFELGYNLE”, the “soluble on expression in E. coli” value is listed as “soluble”.

With “PVPATPILQLEECCTHNNSATLSWKQPPLSTVPADGYILELDDGNGGQFREVYVGKETMCTVDGLHFNSTYNARVKAFNKTGVSPYSKTLVLQTSEG”, the “soluble on expression in E. coli” value is recorded as “soluble”.

Regarding “MAVESRVTQEEIKKEPEKPIDREKTCPLLLRVFTTNNGRHHRMDEFSRGNVPSSELQIYTWMDATLKELTSLVKEVYPEARKKGTHFNFAIVFTDVKRPGYRVKEIGSTMSGRKGTDDSMTLQSQKFQIGDYLDIAITPPNRAPPTSGRMRPY”, the “soluble on expression in E. coli” value is “soluble”.

For “MGSSHHHHHHSSGLVPRGSHMNESIVISLGGSVISGDPIDADYMKSFARILEASKYRRVGIVTGGGRTARSYISVLRKLNVNENVLDEIGIYATRMNALSMASLIPGSNPTIPFTVEDAVNLMNTYRFVVMGGTEPGHTTDTVAALLCERSATRTLINVTSVDGVYDMDPHRFANAKRFDRIGYREAIALSTKSSAGAGPNVFMDITALTIAMRSRIRVIVTSRDIDNLEKILKGDRAVSTFIDDDQRS”, the “soluble on expression in E. coli” value was “soluble”.

For the sequence “MNSIWARLRLASSQLPIGGYSYSQGLEAALDNGWVRDAESARTWLVDQLQLNLARFEAPLLAGLLRAALIGDWAACDAASERHRASRETRELAQESRQMGFSLHQLLEALPELDAPGRAWLARQDPPNLAAAWAMAARAWRLDAEEALSAWFWSWLENQLAVLMKTLPLGQLAAQKLASSLLPELDRACAEALRRPAVEGSAAFGLALASMTHETQYSRLFRSLEHHHHHH”, the “soluble on expression in E. coli” value is recorded as “not soluble”.

As to “MMEPTIHLRQAKAGDIPAILEIEQECFQEDSFSREQFVYLICRSKGTFYVVVEQERIIAYVSLLFHAGTRYLRIYSIAVHPDCRGRKLGQLLMERTIETALDCRAVKITLEVKESNTPAIKLYMKNGFIPVGVKPNYYHDGSDAIYMQRHM”, the “soluble on expression in E. coli” value is “not soluble”.

Regarding “MGSDKIHHHHHHMVNKFTQFLVAFISLWMLHSCSGPQKEYVLKVKLNKLTQKDMYEYNLVKDVIFDAQELNVDSIKARSRESFLKGVDEYKNKHNAAAAVPLFKQSILTFPDAKTYYELGNALMELNTEASLDESIKAYRVAEELDIKPIASVYYKMACAQNMIGTLKKSDEDEYMVISYLRKSFINGFYDTLTLAKDTRINSILSTMSYKTLLRELESFKYKEDRNGLFELFKQAYPRPVEFEAALTDLTQYENKESISYDFAVFVPEMQNTEFGREVSNDFFYNALVQETPAYTALIYTSVSFWGDHDALMPSFTSLVTYDPMGIIIDRKLIACQCSAEKVKTVKIKDNKVYVEDFKRIWKQPIDKVSFDDNEVDKFESLAKLTYTINEDGTIQASEIPANYMDTVITKDQSKNTPQ”, the “soluble on expression in E. coli” value is reported as “not soluble”.

Regarding “MRLVLSSLIVIAGLLSSQATAATAPEQTASADIRDSGFVYCVSGQVNTFNPQKASSGLIVDTLAAQLYDRLLDVDPYTYRLVPELAESWEVLDNGATYRFHLRRDVSFQKTAWFTPTRKLNADDVVFTFQRIFDRRHPWHNINGSSFPYFDSLQFADNVKSVRKLDNNTVEFRLTQPDASFLWHLATHYASVMSAEYAAQLSRKDRQELLDRQPVGTGPFQLSEYRAGQFIRLQRHDGFWRGKPLMPQVVVDLGSGGTGRLSKLLTGECDVLAWPAASQLTILRDDPRLRLTLRPGMNIAYLAFNTDKPPLNNPAVRHALALSINNQRLMQSIYYGTAETAASILPRASWAYDNDAKITEYNPQKSREQLKALGIENLTLHLWVPTSSQAWNPSPLKTAELIQADMAQVGVKVVIVPVEGRFQEARLMDMNHDLTLSGWATDSNDPDSFFRPLLSCAAINSQTNFAHWCNPEFDSVLRKALSSQQLASRIEAYEEAQNILEKELPILPLASSLRLQAYRYDIKGLVLSPFGNASFAGVSREKHEEVKKP”, the “soluble on expression in E. coli” value is “not soluble”.

“RLLLNGDGTPVGGAWNFDAENRKALPKGVAAPYPMRFSADAITRDVLTLVAERFASHYGSLDTFDYPVTQADAQALWEYFLDFGLAGFGDYQDAMATDEPFLFHARISAALNIGLLDLRQICSDVESAYWSGRVALNAAEGFIRQLIGWREYVRGVYWLKM”: the “soluble on expression in E. coli” value is recorded as “not soluble”.

As for “GPGSMVRKNMYDGWSYERLRQQRNRAHFLLEDPYRFVTVLLHNGKLYAIDSPCYHASGPLGEGELMDLEDSHTAASVACLRCPWHNILVAIDTGEIVEVHPDTSAVRGKDDGGRELAAPSYPLRPHWEASAGSVRLSRGNVVQRTHKVSLDESNGIMTIEIEDEATMRRHPLPSDAAAGILESGALTMQIFDIKSKGMS”, the “soluble on expression in E. coli” value is “soluble”.

On to “MGSDKIHHHHHHMYDATHLFEPPVMTEEEKMERFKERIENGEKIEADDWMPDFYRDTLIKLISMHGISEIMGALPEKEWVPKAPSLRRKLGIMAKVQDEMGHGQLLLRVVEDLMKPYGKTRADLMDDLFTGRLKFHNVFHMPTRSWADAGTIGWLVDGAAIITQTNMLGASYGPYARALQRICAEEVFHAQHGESIIMALAEGTPEQKAMIQESLDEWWESLLMFFGPASKETTGTSKQDVTIAYKIRTKTNEELRQNFFTKYVPRIRSLGLIIPDPTLRFDEETGQWIYAQPDWTEFKKIIQGGCPRSKERLALRQTSYQNNAWVREALAETIG”, for which the “soluble on expression in E. coli” value was “not soluble”.

Take “MKQADELRFNEDGLIPAIVQDAASKEVLTLAYMNKESYEKTLETKETWFYSRSRQALWHKGETSGNTQAVKGIRYDCDQDALLVLVEPSGPACHTGSYSCFTKEQTEEQAADRFGIMNELERVIAERQAEMPEGAYTTYLFREGVDKILKKVGEEASEVIIAAKNRDHEELKWEAADLLYHLLVLLREQSLPLDDVLDVLKKRHSEIEELEHHHHHH”: the “soluble on expression in E. coli” value is on record as “not soluble”.

For “MAHHHHHHMADYNAAGADTAVVDDNVPPGITTKQDEIIQYVAKYVVASCDGARYQDKVRTRTKHNPYFDFLNAKHPYHQYYQYLLESYRHWMRNSEAVGAGTWGGGVDATQGQGQQQQWNEEDYYQYYGAYAGQASGIEFQGNAAGQLGEGSSYVDASSSAHARNASSGVDPTSYESEAVTATGYGAGYDPSAVDPEPAQVATTAGGGEAQAEEDEDDEYELVMENGQWVSRKRM”, the “soluble on expression in E. coli” value was “soluble”.

As to “AIASVAFVPDWLRGKAEVNQETIQRLLEENDQLIRCIVEYQNKGRGNECVQYQHVLHRNLIYLATIADASPTSTSKAME”, the “soluble on expression in E. coli” value was “soluble”.

Regarding “VLHQPPAMSSALGTTIRLTCTLRNDHDIGVYSVYWYQQRPGHPPRFLLRYFSQSDKSQGPQVPPRFSGSKDVARNRGYLSISELQPEDEAMYYCAMGARSTHVFGSGTQLTVLSAA”, the “soluble on expression in E. coli” value is “soluble”.
